Reference: article PMC7946950
Where two headings read alike, the source gives them in different places.

Assays:
[1] = target: Coagulation Factor XIa (human) (UniProt P03951); assay: kinetics of protease inhibition (second order rate constant k2, discontinuous method, residual protease activity); protease 5-75 nM, at least 10:1 molar ratio of AAT variant to protease (pseudo-first order), 37 °C, PPNE buffer (20 mM sodium phosphate pH 7.4, 100 mM NaCl, 0.1 mM EDTA, 0.1% polyethylene glycol 8000)
thrombin (human) [2] = assay: as above
[3] = target: Coagulation Factor XIa (human) (UniProt P03951); assay: stoichiometry of inhibition (SI) titration, residual FXIa activity; varying ratios of AAT variant to FXIa incubated at ambient temperature for 2 h; residual FXIa activity determined at 37 °C; regression to zero activity
[4] = target: Activated Protein C (human); assay: kinetics of protease inhibition (second order rate constant k2, discontinuous method, residual protease activity); protease 5-75 nM, at least 10:1 molar ratio of AAT variant to protease (pseudo-first order), 37 °C, PPNE buffer (20 mM sodium phosphate pH 7.4, 100 mM NaCl, 0.1 mM EDTA, 0.1% polyethylene glycol 8000)
kallikrein (human) = assay: as above
Factor XIIa (human) = assay: as above
[5] = target: Coagulation Factor XIa (human) (UniProt P03951); assay: as above; remark: listed apart in the source
Factor Xa (human) = assay: as above
[6] = target: Coagulation Factor XIa (human) (UniProt P03951); assay: as above; remark: listed apart in the source
thrombin (human) [7] = assay: as above; remark: listed apart in the source

k2 (second order rate constant of inhibition) [1]	stoichiometry of inhibition (SI) [3]	k2 (second order rate constant of inhibition) [5]	Sequence	further results
41000 M⁻¹ s⁻¹	3.3	–	AAT M358R/PRSTE, cleavable GST fusion system (designed binder)	k2 (second order rate constant of inhibition) (thrombin (human) [2]): 1200 M⁻¹ s⁻¹
–	–	45000	AAT M358R/PRSTE, from the pBAD P2'/P3' bacterial expression library (designed binder)	–
–	–	180000 M⁻¹ s⁻¹	AAT M358R (alpha-1 antitrypsin M358R), arabinose-inducible system (natural protein)	k2 (second order rate constant of inhibition) [6]: 190000 M⁻¹ s⁻¹; k2 (second order rate constant of inhibition) (thrombin (human) [7]): 160000 M⁻¹ s⁻¹

Continued, sequence first:

Sequence	k2 (second order rate constant of inhibition) [1]	stoichiometry of inhibition (SI) [3]	k2 (second order rate constant of inhibition) [5]	further results
AAT M358R (alpha-1 antitrypsin M358R), cleavable GST fusion system (natural protein)	160000 M⁻¹ s⁻¹	2.1	170000 M⁻¹ s⁻¹	k2 (second order rate constant of inhibition) (thrombin (human) [2]): 210000 M⁻¹ s⁻¹; k2 (second order rate constant of inhibition) [4]: 40000 M⁻¹ s⁻¹; k2 (second order rate constant of inhibition) (kallikrein (human)): 40000 M⁻¹ s⁻¹; k2 (second order rate constant of inhibition) (Factor XIIa (human)): 23000 M⁻¹ s⁻¹; k2 (second order rate constant of inhibition) (Factor Xa (human)): 35000 M⁻¹ s⁻¹
AAT M358R/PRSLD, from the pBAD P2'/P3' bacterial expression library (designed binder)	–	–	38000	–
AAT M358R/HASTGQ, cleavable GST fusion system (designed binder)	34000 M⁻¹ s⁻¹	12.7	–	–
AAT M358R/QSIIS, arabinose-inducible system (designed binder)	–	–	–	k2 (second order rate constant of inhibition) (thrombin (human) [7]): 100000 M⁻¹ s⁻¹
